Entries after “also recorded” stand apart in the source; their conditions may differ.
Assays:
4T1 cells = assay: Repeated dosing of Nani-P2 and cyclophosphamide in 4T1 tumor-bearing mice; format: in vivo, mouse
Experimental: Four groups of 10 BALB/c mice were implanted with 1×10^4 4 T1 cells SC into the mammary fat pad. Treatment was initiated when tumor diameters reached 4-5 mm, on day 10. Control mice were injected IV with PBS at 3 days intervals, while alternating treatment mice received 3 doses of drug every 3 days in rotating 10 day cycles. Tumor burden (tumor size mm^3) was calculated using a standard formula. CY (cyclophosphamide alone) mice were injected IP weekly with 80 mg/kg per mouse beginning on day 10. Cy/Nani-P2 (cyclophosphamide first followed by Nani-P2) mice were first injected IP with cyclophosphamide (80 mg/kg) at 3 days intervals for three doses starting at day 10 and then injected IV with Nani-P2 (40 ng) at 3 days intervals for three doses in rotation. The cycle of 3 doses of CY followed by 3 doses of Nani-P2 was repeated until day 50. Nani-P2/CY (Nani-P2 first followed by cyclophosphamide) mice were first injected IV with Nani-P2 (40 ng) at 3 day intervals for 3 doses starting on day 10 and then injected i.p. with cyclophosphamide at 3 day intervals in rotation. The cycle of 3 doses of Nani-P2 followed by 3 doses of CY was repeated until day 50.

Human monocytes = assay: CD86 expression of human monocytes cultured with Tat derivative; format: cell-based; details: cultured 24-48 hours; fluorescent-labeled CD86; compared with ISS (TLR) or LPS
Experimental: Human monocytes were cultured for 24-48 hours with a Tat derivative (Nani-P2), an immunostimulatory sequence (ISS) of a toll-like receptor (TLR) (FIG. 1), or lipopolysaccharide (LPS) (FIG. 2) and the cells were then washed and stained with fluorescent-labeled CD86.

[1] = test system: tumor infiltrating CD8+ CTL; assay: IHC staining of primary 4T1 breast tumors for CD8; format: in vivo, mouse; details: therapy initiated 7 days after inoculation; resected Day 29/30; listed as PIN-2
Experimental: (§1) Female BALB/c mice were inoculated in the mammary fat pad with syngeneic and highly metastatic 4T1 breast cancer cells to model Stage IV human breast cancer. Nani-P2 immunotherapy was initiated 7 days after tumor cell inoculation. Tumors were assessed by caliper measurements throughout the study and resected on Day 29/30. Immunohistochemical staining (IHC) for PD-L1 and CD8 was performed on formalin-fixed, paraffin embedded specimens of primary 4T1 tumors.

SM1 breast cancer cells = assay: SM1 mammary carcinoma model, primary tumor growth; format: in vivo, mouse
Experimental: (§2) BALB/c mice were injected (SC) with 1×10^4 4 T1, 1×10^5 TS/A or 2×10^5 SM1 cells, respectively, in the left mammary pad on day 0. […] The control group received PBS injection. […] Tumor burden (tumor volume) was measured and recorded three times weekly. Animals were sacrificed when tumors reached a volume of 15 mm in diameter and the tumors harvested and weighed.
The SM1 mammary carcinoma model (FIG. 6B) is initially less aggressive as a primary tumor, and deaths appear to be through mechanisms other than metastatic disease. By day 30 of treatment, SM1 tumors reached a mean volume approximately 33% smaller than either TS/A or 4T1. This indicated a heightened sensitivity of the SM1 tumor to Nani-P2 immunotherapy as compared to 4T1, such that tumor growth was suppressed in 100% of animals for 16 days, and 40% of animals remained in remission even at 28 days following implant and fully one week after termination of the regimen.

PD-L1 = assay: IHC staining of primary 4T1 breast tumors for PD-L1; format: in vivo, mouse; details: therapy initiated 7 days after inoculation, resected Day 29/30
Experimental: as §1

[2] = Toxicity observed in treated mice; format: in vivo, mouse; details: SC or IV 40 ng, multiple trials, multiple dosing schedules
4T1 breast tumor = assay: 4T1 primary breast tumor growth in BALB/c mice; format: in vivo, mouse
Experimental: as §2
The therapeutic effect of systemic administration of synthetic, Tat-derived compositions in murine models of breast cancer was investigated. […]

4T1 breast tumors = assay: Kaplan-Meier survival of mice bearing 4T1 breast tumors; format: in vivo, mouse
Experimental: To determine whether Nani-P2 treatment could extend survival in addition to shrinking primary tumors in mice, treatment protocols using various dosing schedules and routes (SC, IV or IT) of administration of 40 ng Nani-P2 were performed. Cohorts of ten mice per group were followed for length of survival, as assessed by use of the Kaplan-Meier product limit method. As per Columbia University Medical Center Animal Facility regulations, each mouse was euthanized at a mean tumor diameter of approximately 15 mm, or earlier if the mouse became moribund, making one of these two outcomes the defining criteria for fatality.

4T1 lung metastases = assay: Detection of 4T1 lung metastases; format: in vivo, mouse
Excerpt: Lungs were examined for 4T1 metastases as previously described (Pulaski B. et al. Cancer Res. 60:2710-2715, 2000). Primary 4T1 tumors that have been established for 2-3 weeks in BALB/c mice metastasize to the lungs in a very large majority of animals. Briefly, mice were sacrificed according to IACUC guidelines established at the start of the trials, the lungs were removed, and tumor nodules on the surface of the lungs were enumerated with the naked eye by two independent investigators blinded to the treatment protocols.
To further investigate the efficacy of Nani-P2 against established and metastatic breast cancer, 4T1 cells were injected SC in the abdominal mammary gland of mice and treatment was delayed until such time that the tumors had metastasized to the lungs and averaged 3.5 mm in size (FIG. 8A, day 13), corresponding to a 2.4 cm or stage T2 human breast tumor. Mice were followed for tumor growth (FIG. 8A) and lung metastases (FIG. 8B). […] This corresponded to a less aggressive appearance of primary tumor, as well as lung metastases that were on average much smaller in size (FIG. 8B).

[3] = Nani-P2 alternating with cyclophosphamide

B1: Nani-P2: Tat derivative polypeptide SEQ ID NO:3; TF SIVagmVer, cysteine-rich HIV-1, C-terminal SIVagmVer (protein)
chain: MDPKGEEDQDVSHQDLIKQYRKPRTACNNCYCKKCCFHCYACFLRKGLGITYHAFRTRRKKIASADRIPVPQQSISIRGRDSQTTQESQKKVEEQAKANLRISRKNLGDETRGPVGAGN
modifications: Tat derivative polypeptide
notes: TF SIVagmVer, cysteine-rich HIV-1, C-terminal SIVagmVer
mice in partial remission at day 50 (4T1 cells; [3]): 9/10 | mice in total remission at day 50 (4T1 cells; [3]): 3/10 | survival benefit versus weekly cyclophosphamide (4T1 cells; Nani-P2 bolus treatment alternating with cyclophosphamide, p=0.0001): highly statistically significant | expression of CD86 (Human monocytes): higher expression of CD86 than either ISS (TLR) or LPS | tumor infiltrating CD8+ CTL versus PBS control [1]: infiltrating CD8+ CTL advancing around tumor edge; also recorded: significant increase in the population of tumor infiltrating CD8+ CTL | animals with SM1 tumor growth suppressed for 16 days (SM1 breast cancer cells; 40 ng SC days 0, 7, 14, 21): 100% | difference in SM1 primary tumor growth versus control (SM1 breast cancer cells; 40 ng SC days 0, 7, 14, 21, p<0.01): highly statistically significant | animals remaining in remission at 28 days following implant (SM1 breast cancer cells; 40 ng SC, one week after termination of the regimen): 40% | PD-L1 expression in primary 4T1 tumors versus controls (PD-L1): reduced | PD-L1 expression in primary 4T1 tumors versus controls (PD-L1; listed as PIN-2): reduced PD-L1 presence near the tumor edge | toxicity [2]: no toxicity was observed | 4T1 tumor volume difference versus control, 4 ng (4T1 breast tumor; 4 ng per mouse, four times over 21 days, p<0.1 as printed): highly significant | mice in complete remission, disease-free at 50 days (4T1 breast tumor; 40 ng IV weekly over three weeks from day 14): one animal underwent a complete remission; also recorded: One of 10 | mice with regression of tumor at the initial treatment on day 14 (4T1 breast tumor; 40 ng IV, established 4T1 tumors): 7/10 | 4T1 tumor volume difference versus control, 40 ng (4T1 breast tumor; 40 ng per mouse, four times over 21 days, p<0.01): highly significant | primary tumor burden of established 4T1 tumors versus PBS control (4T1 breast tumor; 40 ng weekly for three weeks beginning at day 14 (IV), p<0.01): statistically significant benefit in primary tumor suppression; also recorded: highly significant | 4T1 tumor volume difference versus control starting at day 22 (4T1 breast tumor; 400 ng SC days 0, 7, 14, 21, p<0.01): highly significant | 4T1 tumor burden versus PBS control (4T1 breast tumor; 400 ng partially-purified, SC, days 0, 7, 14, 21 (Nani-P3 also 2 μg), from day 15, p<0.05): significantly reduced tumor burden; also recorded: significant | average decrease of 4T1 tumor burden at maximal effect (4T1 breast tumor; SC therapy begun on day 13, tumors about 5 mm in diameter): 52% | average shrinkage of 4T1 tumor burden (4T1 breast tumor; SC therapy initiated on day 0 after tumor cell injection): 53% | effect of increasing the dose to 400 ng and 2 μg (4T1 breast tumor; SC, compared with 40 ng, data not shown): no further anti-tumor efficacy | difference in primary tumor burden between Nani-P2 and Nani-P1-treated tumors (4T1 breast tumor; day 21 (final dosing), 400 ng SC, p<0.01): 18 mm^3 | dose giving significant 4T1 tumor growth inhibition (4T1 breast tumor; highly-purified, SC): ≤ 0.4 ng | 4T1 breast tumor growth inhibitory effect, dose relation (4T1 breast tumor; highly-purified, SC, 0.4 ng to 40 ng per dose): dose-dependent | survival, intratumoral administration (4T1 breast tumors; 40 ng IT, three weekly cycles, tumors established fourteen days): slightly inferior to SC administration | survival at day 47 (4T1 breast tumors; 40 ng IV, three weekly cycles, tumors established fourteen days, p<0.005): 60% | treated mice still alive at day 48 (4T1 breast tumors; 40 ng SC, 4 doses over 21 days from tumor implant, p<0.001): 35% | survival at day 47 (4T1 breast tumors; 40 ng SC, three weekly cycles, tumors established fourteen days, p<0.05): 20% | survival versus control mice (4T1 breast tumors; 4T1 model): increased survival compared with control mice | tumor growth inhibition and survival benefits, extension past the last dosing (4T1 breast tumors; established 4T1 tumors, treated intravenously): at least 36 days | survival versus controls at day 42 (4T1 breast tumors; four doses 40 ng SC from day 0): statistically significant better survival over controls | survival benefit versus control, IV (4T1 breast tumors; three weekly doses 40 ng IV, therapy delayed until day 13/14, day 47): very highly statistically significant benefit to survival; also recorded: highly statistically significant | survival benefit versus control, SC (4T1 breast tumors; three weekly doses 40 ng SC into draining lymph nodes, therapy delayed until day 13, day 47): statistically significant | lung metastases versus controls (4T1 lung metastases; 4T1 model): significantly inhibited the development of spontaneous 4T1 lung metastases; also recorded: dramatic reduction in the visible number of lung metastases | average number of grossly visible tumor nodules in the lungs (4T1 lung metastases; treated IV, treatment delayed to day 13, p<0.01): seven

Source: patent publication US10159707B2, “Treatment of cancers with immunostimulatory HIV Tat derivative polypeptides” (PIN Pharma, Inc., priority 2013, dated 2018)
